Reference: patent US12077763B2, “RNA-based control of powdery mildew” (Greenlight Biosciences, Inc., priority 2021, dated 2024)

System: E. necator
Experiment: Leaf disc assay, dry inoculum (settling tower), decrease in disease severity / hyphal growth (Example 2)
Settings: decrease in disease severity (hyphal growth) relative to untreated control, value ± SE; for % decrease =/− SE TP1: time point 1 (untreated control hyphal growth ≥50%); for % decrease =/− SE TP2: time point 2

| Molecule | % decrease =/− SE TP1 | % decrease =/− SE TP2 |
| --- | --- | --- |
| GS3352 (nucleic acid) sense: UGUAGAGGUGAAGUAGGUGAAAGUUGAUUUGGCGAUGGUAGAGAUGAGUUACUAUUACUGAUAGAAGGUAAAUUUGAGUAAGAUUGCAAAUUUCUAUCAGACGCAGCUGACUGAUCAAGAGUUUGCUCUAAUAAGGAUCUUUCAUGAGCUGAAUGCGCAUAUGUCGGUGACAAAUUUUUGGGAUGAUCGAUAAAGAAUUUUUUGGUUGAAUAGUUGCGAGAGAUUCCAGGUUGUAUUGCAGGUGAUGAAGAAGCUGGUGAAGAAAUGUUGCUUGAGUUGUCAAAAUUGCUACUGUUUGAACCAUUUGUUUUUGCGGAAGGAUACGGGAGUGGUUUACCUUCUUUUGCCAUCCGAAAAACUGGAAGUAAAUCCUCUCUAAGUCGUGUAUAUUCGAAUGU antisense: ACAUUCGAAUAUACACGACUUAGAGAGGAUUUACUUCCAGUUUUUCGGAUGGCAAAAGAAGGUAAACCACUCCCGUAUCCUUCCGCAAAAACAAAUGGUUCAAACAGUAGCAAUUUUGACAACUCAAGCAACAUUUCUUCACCAGCUUCUUCAUCACCUGCAAUACAACCUGGAAUCUCUCGCAACUAUUCAACCAAAAAAUUCUUUAUCGAUCAUCCCAAAAAUUUGUCACCGACAUAUGCGCAUUCAGCUCAUGAAAGAUCCUUAUUAGAGCAAACUCUUGAUCAGUCAGCUGCGUCUGAUAGAAAUUUGCAAUCUUACUCAAAUUUACCUUCUAUCAGUAAUAGUAACUCAUCUCUACCAUCGCCAAAUCAACUUUCACCUACUUCACCUCUACA | 6 ± 4% |  |
| GS3357 (nucleic acid) sense: GAUCUGGUCGUGGUUUGCCGAAAAGAUUCUUCAUUCCUCCCGUUAUAAGAACGGUGAGUGAUAGUGAAAAGCUUAAUCCAAGCAAUCCAACGUGUAAUUCCCACAUUCUCCGAUGCCAUAUGGCAGAUCUAGGCGUUGACUUUGUAACCGUCGGUCCAGGAACAAGAACUAAGCAAAUAGCAAAAAUAACUAAUGCCGGAAUUAUAAAAGCAUAUAAUCCAAGCCAUCGUACCGAGACUUUUUCAUGUGUUUUAUAGGGAAAGCUGAUAUCUGGGUUCUCCAGCGAGAAGGGUCUUUUGUUUGGUACCCUCGAUCCAACAAAUAAUCCAAAAAAUGCACCAAAUAUAACUACCAGCCAAUCGACAACAUAUGAAAGUACUAGUUUUAAUGA antisense: UCAUUAAAACUAGUACUUUCAUAUGUUGUCGAUUGGCUGGUAGUUAUAUUUGGUGCAUUUUUUGGAUUAUUUGUUGGAUCGAGGGUACCAAACAAAAGACCCUUCUCGCUGGAGAACCCAGAUAUCAGCUUUCCCUAUAAAACACAUGAAAAAGUCUCGGUACGAUGGCUUGGAUUAUAUGCUUUUAUAAUUCCGGCAUUAGUUAUUUUUGCUAUUUGCUUAGUUCUUGUUCCUGGACCGACGGUUACAAAGUCAACGCCUAGAUCUGCCAUAUGGCAUCGGAGAAUGUGGGAAUUACACGUUGGAUUGCUUGGAUUAAGCUUUUCACUAUCACUCACCGUUCUUAUAACGGGAGGAAUGAAGAAUCUUUUCGGCAAACCACGACCAGAUC | 9 ± 6% | 7 ± 6% |
| GS3356 (nucleic acid) sense: CUGGGUGAGUUUUUCGUAACGUCGCUACUUUAUUAACUUGAUCUGCCGUGGAUUUUGGUUGUCUUGUAUCAAUCAAAAGGAGAGGAAGCUUCGGAAACUUCAUUAAAGAUCUUAUGAUUGGCUCCUUUGAAUAGUCGGGCCUCUGAAAUAUAACAGCUUUUCCUUGGGAGGCAACAGUGUUAUCUACUCCUGAAGGGUUUCCAUGGAUACAUAUUUCUCCUACAUAAGCCCACAUAUUAAUGCGGCUUAUUUGGGUAUGUGCUUCUUCAAUGGGUUGGUCCUCAUGAGGCCCAGAAAGCGCUCUUACCUGUAAUAAGAGCGCAGCAGCUAGACACACAGUAAUAGAUGCA antisense: UGCAUCUAUUACUGUGUGUCUAGCUGCUGCGCUCUUAUUACAGGUAAGAGCGCUUUCUGGGCCUCAUGAGGACCAACCCAUUGAAGAAGCACAUACCCAAAUAAGCCGCAUUAAUAUGUGGGCUUAUGUAGGAGAAAUAUGUAUCCAUGGAAACCCUUCAGGAGUAGAUAACACUGUUGCCUCCCAAGGAAAAGCUGUUAUAUUUCAGAGGCCCGACUAUUCAAAGGAGCCAAUCAUAAGAUCUUUAAUGAAGUUUCCGAAGCUUCCUCUCCUUUUGAUUGAUACAAGACAACCAAAAUCCACGGCAGAUCAAGUUAAUAAAGUAGCGACGUUACGAAAAACUCACCCAG | 5 ± 5% |  |
| GS1798: dsRNA trigger SEQ ID NO 192; gene target Tip elongation aberrant protein 1 (nucleic acid) DNA: AAATGTGTACCACCTTCTTGATGTAATTCTGAACGCAGCCAAATCTCCCAAGTCAGATCCATCGTCAGCCCGTCCTCCAAAGACATACATCACATCGTCAACAATTGCTGCAGCATGACCTTCTCTTGGAACCGGTATATATCCTATGCAGTCCAAAAGAGTCCAGGAGTTCGGTATCGGATCATAACACCAAACATCGTTATACCATTGAAGACCATTTGTTCCGCCAAACAAGTAAAGCTTTTCATTATATGTCACAACTGAGTGATTTGTTCTAGCTGATGGTATTTGTCCTACTGGGGGTCCACCATCCTCACTATTTTTAATGAGAATTTCCCACCTGTTCGTAGGGACTTGCAAAAGATTCAAATCAAAAGCCACAAGGTCATTCATAAAATAACCCTCTACTTGCCCCCCGAATACGTAGATTTTAGACCCTAGTATATTGAGAGAATGACCATAACGCCCCGCGGGCCGTGGCCCGGCAGGTATAGCTCTGGACCATTGTCGGGTAGAGGTATTAAGTAAGTAAAGAGTTTCATCTAATACGTCAGAATCGTCCATTTTAGTATCCCCACCATATACAATAAAAGCATTT | 44 ± 4% | 47 ± 5% |
| GS3346 (nucleic acid) sense: GUAGAGUUGAGCUUGGCCCUAAUGGCGUAAAUAAGAUCCAUGAAGUGGGAAACCUUGCUCCUGAAGAACAAGGUCUUUUAAAAGCUGCUCUAGUUGAUUUGUUAAAGAAUAUCGAAAAAGGAAUCAAAUUUGUUAACCAGAACCCCGGUGAAUAAAUAAAAUGUUAUUCAAUUUACAAUCUGUUGUUUUUUGAUCGUGGAUACCUUGAUAUUCAGUAACGAGGGAGAAUCAUUCUCCUGUCCCAAAAAAGUACUAUCUACUAUCUUAAAUUUUAUGGAAUCUUGAAUUUGUCCAAUGUAUCAAUAGAAAAAUUCUUUCAAAUUACAAGUCAAAAGUAUUAUGAAAAUUAAAAAGGACUAAUCCUCUUACAUAGAUAUAUAUAAAUAUA antisense: UAUAUUUAUAUAUAUCUAUGUAAGAGGAUUAGUCCUUUUUAAUUUUCAUAAUACUUUUGACUUGUAAUUUGAAAGAAUUUUUCUAUUGAUACAUUGGACAAAUUCAAGAUUCCAUAAAAUUUAAGAUAGUAGAUAGUACUUUUUUGGGACAGGAGAAUGAUUCUCCCUCGUUACUGAAUAUCAAGGUAUCCACGAUCAAAAAACAACAGAUUGUAAAUUGAAUAACAUUUUAUUUAUUCACCGGGGUUCUGGUUAACAAAUUUGAUUCCUUUUUCGAUAUUCUUUAACAAAUCAACUAGAGCAGCUUUUAAAAGACCUUGUUCUUCAGGAGCAAGGUUUCCCACUUCAUGGAUCUUAUUUACGCCAUUAGGGCCAAGCUCAACUCUAC | 3 ± 6% |  |
| GS3351 (nucleic acid) sense: AAGAAACAGACAGAUGAUUUUAUCAUAUUUCAAGGUAUAUUUGAAUUUAGUGAAUCUAGUUUAAUAUAAUUUAAAUUUAUUCGAUUAUCACCAACCUAUGAAAAAAUCAUUUCAUCCCAAUUCCGACAUGAAUUUGUAGUGUCUGACAGGUUUGUUUAAAAACGAAGUGGUGUAAAGAACCAUCGAUUCUUUCCACUUAAAUAUCUCUCCUCUAAGGCUUUCUUAACCACUUUCUUGGCAUCCUCUCGCUGCGAUACUUCCUUGAAUGUUUCUGUAGAUAUUACGUUUUUAAGACCUUCUAAUUCGAGUGUGUAACGUGUUGGCAUAAUAUGAUUAUAAUUGAUAACUUUUAUAAAA antisense: UUUUAUAAAAGUUAUCAAUUAUAAUCAUAUUAUGCCAACACGUUACACACUCGAAUUAGAAGGUCUUAAAAACGUAAUAUCUACAGAAACAUUCAAGGAAGUAUCGCAGCGAGAGGAUGCCAAGAAAGUGGUUAAGAAAGCCUUAGAGGAGAGAUAUUUAAGUGGAAAGAAUCGAUGGUUCUUUACACCACUUCGUUUUUAAACAAACCUGUCAGACACUACAAAUUCAUGUCGGAAUUGGGAUGAAAUGAUUUUUUCAUAGGUUGGUGAUAAUCGAAUAAAUUUAAAUUAUAUUAAACUAGAUUCACUAAAUUCAAAUAUACCUUGAAAUAUGAUAAAAUCAUCUGUCUGUUUCUU | 4 ± 7% |  |
| GS3347 (nucleic acid) sense: GUGAGUAUCAGGUGUAUAAAUAAAACGUAUAAAAAUGUGAUGUUAUAGAUCGACGGUCAAAGAUUUCUAGAGAUUGAGGUACUGGACAUUCCUUCUUCAACCCCUCAAGAAAUUGUUAAGUCGAAAGAUUAGUAAUUCUCAACUCUGAUUAAAAUAAUCGAUAUGUAUGAAGAUAAGCGAGAUGAAUUGAUAAUGUUGUCUAAAAUUUCGAAUUAUGAAUCUUUACAAAAGAGGGUGAGUUGUCGUAUGAUAAAAGGAGCCUGCUCCGAUCUAGAUAGAACACAGCAGGUAAAGUAGAAGUGAUAUCUGCGAGGAGCCUUGACACCAGCAAGGACUCAGUCCGAAGAGUACGAGUUGCUUUCUGGUUUGUUGAAUGAAAGAAGUAGAAAAAAAUAUAA antisense: UUAUAUUUUUUUCUACUUCUUUCAUUCAACAAACCAGAAAGCAACUCGUACUCUUCGGACUGAGUCCUUGCUGGUGUCAAGGCUCCUCGCAGAUAUCACUUCUACUUUACCUGCUGUGUUCUAUCUAGAUCGGAGCAGGCUCCUUUUAUCAUACGACAACUCACCCUCUUUUGUAAAGAUUCAUAAUUCGAAAUUUUAGACAACAUUAUCAAUUCAUCUCGCUUAUCUUCAUACAUAUCGAUUAUUUUAAUCAGAGUUGAGAAUUACUAAUCUUUCGACUUAACAAUUUCUUGAGGGGUUGAAGAAGGAAUGUCCAGUACCUCAAUCUCUAGAAAUCUUUGACCGUCGAUCUAUAACAUCACAUUUUUAUACGUUUUAUUUAUACACCUGAUACUCAC | 2 ± 7% |  |
